Experimental data from patent US20240287484.

Assays:
Conditions in all cases: qPCR; 3 mM MgCl2, 37 C
[1] = tested on: T1, MG153-40 RT (uncultivated organism (metagenomic))
T1 sequence: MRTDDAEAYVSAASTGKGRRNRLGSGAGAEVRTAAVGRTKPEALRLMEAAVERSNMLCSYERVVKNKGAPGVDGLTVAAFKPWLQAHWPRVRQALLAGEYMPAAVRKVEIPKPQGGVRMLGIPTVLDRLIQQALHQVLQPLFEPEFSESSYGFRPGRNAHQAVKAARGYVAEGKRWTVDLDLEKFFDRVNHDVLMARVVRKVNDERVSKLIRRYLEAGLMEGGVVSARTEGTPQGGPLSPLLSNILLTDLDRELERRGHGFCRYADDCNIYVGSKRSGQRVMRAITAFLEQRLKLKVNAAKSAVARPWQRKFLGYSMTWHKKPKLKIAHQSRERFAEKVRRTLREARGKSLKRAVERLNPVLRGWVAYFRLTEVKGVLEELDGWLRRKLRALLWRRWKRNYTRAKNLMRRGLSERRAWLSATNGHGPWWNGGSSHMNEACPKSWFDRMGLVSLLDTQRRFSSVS

[2] = tested on: T2, MG153-26 RT (uncultivated organism (metagenomic))
T2 sequence: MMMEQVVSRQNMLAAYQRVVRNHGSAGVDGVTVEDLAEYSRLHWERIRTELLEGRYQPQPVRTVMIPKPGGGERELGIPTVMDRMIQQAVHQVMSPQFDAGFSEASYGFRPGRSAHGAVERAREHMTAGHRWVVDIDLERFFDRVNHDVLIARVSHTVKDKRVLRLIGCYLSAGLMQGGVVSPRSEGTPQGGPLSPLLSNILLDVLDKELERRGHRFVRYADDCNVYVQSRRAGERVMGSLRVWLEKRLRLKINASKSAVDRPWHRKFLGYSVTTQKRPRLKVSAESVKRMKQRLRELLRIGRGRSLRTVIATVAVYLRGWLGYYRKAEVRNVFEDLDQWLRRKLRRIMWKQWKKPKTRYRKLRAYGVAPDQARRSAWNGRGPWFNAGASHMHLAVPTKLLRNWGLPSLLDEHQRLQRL

[3] = tested on: T3, MG153-25 RT (uncultivated organism (metagenomic))
T3 sequence: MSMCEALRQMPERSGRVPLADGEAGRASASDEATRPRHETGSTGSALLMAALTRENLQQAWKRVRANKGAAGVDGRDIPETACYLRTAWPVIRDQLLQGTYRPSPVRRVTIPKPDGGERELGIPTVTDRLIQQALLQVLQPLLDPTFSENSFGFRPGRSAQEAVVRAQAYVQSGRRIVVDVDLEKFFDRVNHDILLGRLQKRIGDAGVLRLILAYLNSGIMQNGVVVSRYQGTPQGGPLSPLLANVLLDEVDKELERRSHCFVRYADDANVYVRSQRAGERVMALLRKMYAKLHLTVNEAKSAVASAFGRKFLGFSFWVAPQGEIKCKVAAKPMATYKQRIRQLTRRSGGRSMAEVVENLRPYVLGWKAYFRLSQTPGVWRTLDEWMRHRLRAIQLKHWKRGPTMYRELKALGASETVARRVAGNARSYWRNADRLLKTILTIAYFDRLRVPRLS

[4] = tested on: T4, MG165-4 RT (uncultivated organism (metagenomic))
T4 sequence: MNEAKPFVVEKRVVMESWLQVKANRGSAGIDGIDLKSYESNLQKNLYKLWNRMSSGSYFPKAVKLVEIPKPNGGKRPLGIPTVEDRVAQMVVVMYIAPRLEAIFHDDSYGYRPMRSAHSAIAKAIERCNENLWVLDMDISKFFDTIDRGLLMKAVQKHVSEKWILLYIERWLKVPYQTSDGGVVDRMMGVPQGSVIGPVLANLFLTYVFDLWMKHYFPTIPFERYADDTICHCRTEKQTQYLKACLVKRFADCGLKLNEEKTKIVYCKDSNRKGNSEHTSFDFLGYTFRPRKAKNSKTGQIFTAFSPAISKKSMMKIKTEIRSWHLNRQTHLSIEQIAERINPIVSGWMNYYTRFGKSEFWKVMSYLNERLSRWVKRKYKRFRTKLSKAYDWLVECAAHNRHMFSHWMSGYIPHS

[5] = tested on: T5, MG165-8 RT (uncultivated organism (metagenomic))
T5 sequence: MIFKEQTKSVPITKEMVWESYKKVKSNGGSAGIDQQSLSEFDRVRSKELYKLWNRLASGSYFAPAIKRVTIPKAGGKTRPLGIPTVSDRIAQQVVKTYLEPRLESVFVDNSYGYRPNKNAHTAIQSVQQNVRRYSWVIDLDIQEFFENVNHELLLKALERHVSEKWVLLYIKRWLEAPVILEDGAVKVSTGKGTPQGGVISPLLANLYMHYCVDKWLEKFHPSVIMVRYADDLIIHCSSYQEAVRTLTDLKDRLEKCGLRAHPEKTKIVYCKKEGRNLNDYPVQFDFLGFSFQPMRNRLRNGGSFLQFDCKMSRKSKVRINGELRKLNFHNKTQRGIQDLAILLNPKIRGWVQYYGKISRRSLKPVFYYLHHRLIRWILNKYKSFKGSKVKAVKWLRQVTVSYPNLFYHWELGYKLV

[6] = tested on: T6, MG165-6 RT (uncultivated organism (metagenomic))
T6 sequence: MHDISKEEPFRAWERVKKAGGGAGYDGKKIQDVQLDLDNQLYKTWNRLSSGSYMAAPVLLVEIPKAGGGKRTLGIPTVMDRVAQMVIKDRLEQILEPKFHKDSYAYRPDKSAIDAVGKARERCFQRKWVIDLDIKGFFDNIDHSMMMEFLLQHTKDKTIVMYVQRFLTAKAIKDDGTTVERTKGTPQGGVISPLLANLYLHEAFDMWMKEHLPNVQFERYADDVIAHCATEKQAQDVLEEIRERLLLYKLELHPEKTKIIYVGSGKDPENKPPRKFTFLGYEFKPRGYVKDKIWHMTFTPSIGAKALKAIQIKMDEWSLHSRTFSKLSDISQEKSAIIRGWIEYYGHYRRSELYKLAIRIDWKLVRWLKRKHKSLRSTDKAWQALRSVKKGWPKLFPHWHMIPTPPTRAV

Measured: activity (fold over background)

200 nt RNA template annealed to DNA primer
> 10: all assays above
